Experimental data as given in patent publication US20260217835A1 (published 2026).

B1: IgG2 full-length heavy chain SEQ ID NO: 98 with E356K/D399K/K409E, expressed with light chain SEQ ID NO: 61 (antibody)
heavy: QVQLQESGPGLVRPSQTLSLTCTVSGYSITSDHAWSWVRQPPGRGLEWIGYISYSGITTYNPSLKSRVTMLRDTSKNQFSLRLSSVTAADTAVYYCARSLARTTAMDYWGQGSLVTVSSASTKGPSVFPLAPCSRSTSESTAALGCLVKDYFPEPVTVSWNSGALTSGVHTFPAVLQSSGLYSLSSVVTVPSSNFGTQTYTCNVDHKPSNTKVDKTVERKCCVECPPCPAPPVAGPSVFLFPPKPKDTLMISRTPEVTCVVVDVSHEDPEVQFNWYVDGVEVHNAKTKPREEQFNSTFRVVSVLTVVHQDWLNGKEYKCKVSNKGLPAPIEKTISKTKGQPREPQVYTLPPSRKEMTKNQVSLTCLVKGFYPSDIAVEWESNGQPENNYKTTPPMLKSDGSFFLYSELTVDKSRWQQGNVFSCSVMHEALHNHYTQKSLSLSP
light: not shown
B2: IgG2 full-length heavy chain SEQ ID NO: 99 with Q347E/S354Y/T366Y/Y407T, expressed with light chain SEQ ID NO: 61 (antibody)
heavy: QVQLQESGPGLVRPSQTLSLTCTVSGYSITSDHAWSWVRQPPGRGLEWIGYISYSGITTYNPSLKSRVTMLRDTSKNQFSLRLSSVTAADTAVYYCARSLARTTAMDYWGQGSLVTVSSASTKGPSVFPLAPCSRSTSESTAALGCLVKDYFPEPVTVSWNSGALTSGVHTFPAVLQSSGLYSLSSVVTVPSSNFGTQTYTCNVDHKPSNTKVDKTVERKCCVECPPCPAPPVAGPSVFLFPPKPKDTLMISRTPEVTCVVVDVSHEDPEVQFNWYVDGVEVHNAKTKPREEQFNSTFRVVSVLTVVHQDWLNGKEYKCKVSNKGLPAPIEKTISKTKGQPREPEVYTLPPYREEMTKNQVSLYCLVKGFYPSDIAVEWESNGQPENNYKTTPPMLDSDGSFFLTSKLTVDKSRWQQGNVFSCSVMHEALHNHYTQKSLSLSP
light: not shown
B3: IgG2 full-length heavy chain SEQ ID NO: 106 with E345R/K360E/D399M/Y407A/K409V, expressed with light chain SEQ ID NO: 61 (antibody)
heavy: QVQLQESGPGLVRPSQTLSLTCTVSGYSITSDHAWSWVRQPPGRGLEWIGYISYSGITTYNPSLKSRVTMLRDTSKNQFSLRLSSVTAADTAVYYCARSLARTTAMDYWGQGSLVTVSSASTKGPSVFPLAPCSRSTSESTAALGCLVKDYFPEPVTVSWNSGALTSGVHTFPAVLQSSGLYSLSSVVTVPSSNFGTQTYTCNVDHKPSNTKVDKTVERKCCVECPPCPAPPVAGPSVFLFPPKPKDTLMISRTPEVTCVVVDVSHEDPEVQFNWYVDGVEVHNAKTKPREEQFNSTFRVVSVLTVVHQDWLNGKEYKCKVSNKGLPAPIEKTISKTKGQPRRPQVYTLPPSREEMTENQVSLTCLVKGFYPSDIAVEWESNGQPENNYKTTPPMLMSDGSFFLASVLTVDKSRWQQGNVFSCSVMHEALHNHYTQKSLSLSP
light: not shown
notes: also called Sample No. 270
B4: IgG2 full-length heavy chain SEQ ID NO: 105 with E356K/K392D/D399K/K409D, expressed with light chain SEQ ID NO: 61 (antibody)
heavy: QVQLQESGPGLVRPSQTLSLTCTVSGYSITSDHAWSWVRQPPGRGLEWIGYISYSGITTYNPSLKSRVTMLRDTSKNQFSLRLSSVTAADTAVYYCARSLARTTAMDYWGQGSLVTVSSASTKGPSVFPLAPCSRSTSESTAALGCLVKDYFPEPVTVSWNSGALTSGVHTFPAVLQSSGLYSLSSVVTVPSSNFGTQTYTCNVDHKPSNTKVDKTVERKCCVECPPCPAPPVAGPSVFLFPPKPKDTLMISRTPEVTCVVVDVSHEDPEVQFNWYVDGVEVHNAKTKPREEQFNSTFRVVSVLTVVHQDWLNGKEYKCKVSNKGLPAPIEKTISKTKGQPREPQVYTLPPSRKEMTKNQVSLTCLVKGFYPSDIAVEWESNGQPENNYDTTPPMLKSDGSFFLYSDLTVDKSRWQQGNVFSCSVMHEALHNHYTQKSLSLSP
light: not shown
B5: IgG2 full-length heavy chain SEQ ID NO: 107 with T350V/L351Y/T366L/K392L/T394W/F405A/Y407V, expressed with light chain SEQ ID NO: 61 (antibody)
heavy: QVQLQESGPGLVRPSQTLSLTCTVSGYSITSDHAWSWVRQPPGRGLEWIGYISYSGITTYNPSLKSRVTMLRDTSKNQFSLRLSSVTAADTAVYYCARSLARTTAMDYWGQGSLVTVSSASTKGPSVFPLAPCSRSTSESTAALGCLVKDYFPEPVTVSWNSGALTSGVHTFPAVLQSSGLYSLSSVVTVPSSNFGTQTYTCNVDHKPSNTKVDKTVERKCCVECPPCPAPPVAGPSVFLFPPKPKDTLMISRTPEVTCVVVDVSHEDPEVQFNWYVDGVEVHNAKTKPREEQFNSTFRVVSVLTVVHQDWLNGKEYKCKVSNKGLPAPIEKTISKTKGQPREPQVYVYPPSREEMTKNQVSLLCLVKGFYPSDIAVEWESNGQPENNYLTWPPMLDSDGSFALVSKLTVDKSRWQQGNVFSCSVMHEALHNHYTQKSLSLSP
light: not shown
notes: also called Sample No. 271
B6: IgG2 full-length heavy chain SEQ ID NO: 100 with E345R/Q347R/K360D/T366V/D399M/Y407A/K409V, expressed with light chain SEQ ID NO: 61 (antibody)
heavy: QVQLQESGPGLVRPSQTLSLTCTVSGYSITSDHAWSWVRQPPGRGLEWIGYISYSGITTYNPSLKSRVTMLRDTSKNQFSLRLSSVTAADTAVYYCARSLARTTAMDYWGQGSLVTVSSASTKGPSVFPLAPCSRSTSESTAALGCLVKDYFPEPVTVSWNSGALTSGVHTFPAVLQSSGLYSLSSVVTVPSSNFGTQTYTCNVDHKPSNTKVDKTVERKCCVECPPCPAPPVAGPSVFLFPPKPKDTLMISRTPEVTCVVVDVSHEDPEVQFNWYVDGVEVHNAKTKPREEQFNSTFRVVSVLTVVHQDWLNGKEYKCKVSNKGLPAPIEKTISKTKGQPRRPRVYTLPPSREEMTDNQVSLVCLVKGFYPSDIAVEWESNGQPENNYKTTPPMLMSDGSFFLASVLTVDKSRWQQGNVFSCSVMHEALHNHYTQKSLSLSP
light: not shown
B7: IgG4 full-length heavy chain SEQ ID NO: 112 with E356K/K392D/D399K/R409D, expressed with light chain SEQ ID NO: 61 (antibody)
heavy: QVQLQESGPGLVRPSQTLSLTCTVSGYSITSDHAWSWVRQPPGRGLEWIGYISYSGITTYNPSLKSRVTMLRDTSKNQFSLRLSSVTAADTAVYYCARSLARTTAMDYWGQGSLVTVSSASTKGPSVFPLAPCSRSTSESTAALGCLVKDYFPEPVTVSWNSGALTSGVHTFPAVLQSSGLYSLSSVVTVPSSSLGTKTYTCNVDHKPSNTKVDKRVESKYGPPCPPCPAPEFLGGPSVFLFPPKPKDTLMISRTPEVTCVVVDVSQEDPEVQFNWYVDGVEVHNAKTKPREEQFNSTYRVVSVLTVLHQDWLNGKEYKCKVSNKGLPSSIEKTISKAKGQPREPQVYTLPPSQKEMTKNQVSLTCLVKGFYPSDIAVEWESNGQPENNYDTTPPVLKSDGSFFLYSDLTVDKSRWQEGNVFSCSVMHEALHNHYTQKSLSLSL
light: not shown
B8: IgG4 full-length heavy chain SEQ ID NO: 108 with E356K/K392D/D399K/K439E, expressed with light chain SEQ ID NO: 61 (antibody)
heavy: QVQLQESGPGLVRPSQTLSLTCTVSGYSITSDHAWSWVRQPPGRGLEWIGYISYSGITTYNPSLKSRVTMLRDTSKNQFSLRLSSVTAADTAVYYCARSLARTTAMDYWGQGSLVTVSSASTKGPSVFPLAPCSRSTSESTAALGCLVKDYFPEPVTVSWNSGALTSGVHTFPAVLQSSGLYSLSSVVTVPSSSLGTKTYTCNVDHKPSNTKVDKRVESKYGPPCPPCPAPEFLGGPSVFLFPPKPKDTLMISRTPEVTCVVVDVSQEDPEVQFNWYVDGVEVHNAKTKPREEQFNSTYRVVSVLTVLHQDWLNGKEYKCKVSNKGLPSSIEKTISKAKGQPREPQVYTLPPSQKEMTKNQVSLTCLVKGFYPSDIAVEWESNGQPENNYDTTPPVLKSDGSFFLYSRLTVDKSRWQEGNVFSCSVMHEALHNHYTQESLSLSL
light: not shown
B9: IgG4 full-length heavy chain SEQ ID NO: 111 with E345R/Q347R/K360D/T366V/D399M/Y407A/R409V, expressed with light chain SEQ ID NO: 61 (antibody)
heavy: QVQLQESGPGLVRPSQTLSLTCTVSGYSITSDHAWSWVRQPPGRGLEWIGYISYSGITTYNPSLKSRVTMLRDTSKNQFSLRLSSVTAADTAVYYCARSLARTTAMDYWGQGSLVTVSSASTKGPSVFPLAPCSRSTSESTAALGCLVKDYFPEPVTVSWNSGALTSGVHTFPAVLQSSGLYSLSSVVTVPSSSLGTKTYTCNVDHKPSNTKVDKRVESKYGPPCPPCPAPEFLGGPSVFLFPPKPKDTLMISRTPEVTCVVVDVSQEDPEVQFNWYVDGVEVHNAKTKPREEQFNSTYRVVSVLTVLHQDWLNGKEYKCKVSNKGLPSSIEKTISKAKGQPRRPRVYTLPPSQEEMTDNQVSLVCLVKGFYPSDIAVEWESNGQPENNYKTTPPVLMSDGSFFLASVLTVDKSRWQEGNVFSCSVMHEALHNHYTQKSLSLSL
light: not shown
B10: IgG4 full-length heavy chain SEQ ID NO: 113 with E345R/K360E/D399M/Y407A/R409V, expressed with light chain SEQ ID NO: 61 (antibody)
heavy: QVQLQESGPGLVRPSQTLSLTCTVSGYSITSDHAWSWVRQPPGRGLEWIGYISYSGITTYNPSLKSRVTMLRDTSKNQFSLRLSSVTAADTAVYYCARSLARTTAMDYWGQGSLVTVSSASTKGPSVFPLAPCSRSTSESTAALGCLVKDYFPEPVTVSWNSGALTSGVHTFPAVLQSSGLYSLSSVVTVPSSSLGTKTYTCNVDHKPSNTKVDKRVESKYGPPCPPCPAPEFLGGPSVFLFPPKPKDTLMISRTPEVTCVVVDVSQEDPEVQFNWYVDGVEVHNAKTKPREEQFNSTYRVVSVLTVLHQDWLNGKEYKCKVSNKGLPSSIEKTISKAKGQPRRPQVYTLPPSQEEMTENQVSLTCLVKGFYPSDIAVEWESNGQPENNYKTTPPVLMSDGSFFLASVLTVDKSRWQEGNVFSCSVMHEALHNHYTQKSLSLSL
light: not shown
B11: IgG4 full-length heavy chain SEQ ID NO: 109 with E356K/D399K/R409E/K439E, expressed with light chain SEQ ID NO: 61 (antibody)
heavy: QVQLQESGPGLVRPSQTLSLTCTVSGYSITSDHAWSWVRQPPGRGLEWIGYISYSGITTYNPSLKSRVTMLRDTSKNQFSLRLSSVTAADTAVYYCARSLARTTAMDYWGQGSLVTVSSASTKGPSVFPLAPCSRSTSESTAALGCLVKDYFPEPVTVSWNSGALTSGVHTFPAVLQSSGLYSLSSVVTVPSSSLGTKTYTCNVDHKPSNTKVDKRVESKYGPPCPPCPAPEFLGGPSVFLFPPKPKDTLMISRTPEVTCVVVDVSQEDPEVQFNWYVDGVEVHNAKTKPREEQFNSTYRVVSVLTVLHQDWLNGKEYKCKVSNKGLPSSIEKTISKAKGQPREPQVYTLPPSQKEMTKNQVSLTCLVKGFYPSDIAVEWESNGQPENNYKTTPPVLKSDGSFFLYSELTVDKSRWQEGNVFSCSVMHEALHNHYTQESLSLSL
light: not shown
B12: IgG4 full-length heavy chain SEQ ID NO: 114 with T350V/L351Y/T366L/K392L/T394W/F405A/Y407V, expressed with light chain SEQ ID NO: 61 (antibody)
heavy: QVQLQESGPGLVRPSQTLSLTCTVSGYSITSDHAWSWVRQPPGRGLEWIGYISYSGITTYNPSLKSRVTMLRDTSKNQFSLRLSSVTAADTAVYYCARSLARTTAMDYWGQGSLVTVSSASTKGPSVFPLAPCSRSTSESTAALGCLVKDYFPEPVTVSWNSGALTSGVHTFPAVLQSSGLYSLSSVVTVPSSSLGTKTYTCNVDHKPSNTKVDKRVESKYGPPCPPCPAPEFLGGPSVFLFPPKPKDTLMISRTPEVTCVVVDVSQEDPEVQFNWYVDGVEVHNAKTKPREEQFNSTYRVVSVLTVLHQDWLNGKEYKCKVSNKGLPSSIEKTISKAKGQPREPQVYVYPPSQEEMTKNQVSLLCLVKGFYPSDIAVEWESNGQPENNYLTWPPVLDSDGSFALVSRLTVDKSRWQEGNVFSCSVMHEALHNHYTQKSLSLSL
light: not shown

Target: the molecule itself
Experiment: SEC peak area ratio; coexpression of full-length heavy chain, light chain and Fc fragment SEQ ID NO 102

Protein	Homo full-length heavy chain (%)
B1	24.9%
B2	56.5%
B3	62.8%
B4	50.8%
B5	59.1%
B6	57.7%
B7	62.6%
B8	58%
B9	60.8%
B10	67%
B11	64.9%
B12	64%
